The values that follow come from patent publication US20140206849A1 (Alexion, published 2014).

For experiment [1], the target named is T1, human C5a (human, UniProt P01031 678-751).
T1 sequence (looked up): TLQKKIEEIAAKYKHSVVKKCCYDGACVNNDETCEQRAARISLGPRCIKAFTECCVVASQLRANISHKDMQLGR
Description: SPR (Biacore), 'under similar conditions' to the humanized antibody; murine antibody. On the technique in general: SPR reads the build-up and loss of mass on a sensor chip optically.

Experiment [2] has as its target T1, human C5a. Description: SPR (Biacore), antibody captured by anti-human Fc on CM5 chip, human C5a 0.6-5.9 nM in solution, 1:1 Langmuir fit; humanized antibody. From the text:
The humanized antibody was subjected to BIAcore analysis to quantify its affinity for human C5a, in part, to determine if humanization affected the binding affinity of the antibody for its antigen. See, e.g., Karlsson and Larsson (2004) Methods Mol Biol 248:389-415. Briefly, the humanized antibody was screened with 3-4 concentrations of human C5a (antigen) using a capture technique. The antibody was captured by an anti-Fc (human) antibody directly immobilized on a CM5 sensor chip with various concentrations in the range from 0.6 nM to 5.9 nM of human C5a passed over the sensor chip surface. The surface was regenerated with 20 mM HCl, 0.02% P20 after each cycle to remove bound antibody and antigen. The data were evaluated using Biacore BIAevaluation software using a 1:1 Langmuir Model Fit (Rmax:Global Fit; RI:Local Fit). Kinetics information such as kₐ (Association Rate constant), kd (Dissociation Rate constant), and KD (Equillibrium Dissociation constant) was obtained from the fit. […] Methods for testing the humanized antibody for reduced immunogenicity in a human, as compared to the donor antibody, are known in the art and described herein.

B1: murine anti-human C5a antibody (antibody, V domains shown)
VH: EVQLQQSGPELVKPGSSVKISCKASGYTFTDYSMDWVKQSHGKSLEWIGAINPNSGGTNYSQKFKDKATLTVDKSSSTAYMELRSLTSEDSAVYYCASSGSYDGYYAMDYWGQGTSVTVSS
VL: DIVMTQSPASLAVSLGQRATISCRASESVDSYGNSFMHWYQQKPGQPPKLLIYRASNLESGIPARFSGSGSRTDFTLTINPVEADDVATYYCQQSNEDPYTFGGGTKLEIKR
notes: also called murine anti-C5a antibody; murine anti-C5a antibody counterpart
In the case of B1, in the experiment with human C5a [1], the Kd was ~512 pM, the koff was ~0.00141 s⁻¹ and the kon was ~2.76e+06 M⁻¹ s⁻¹.

B2: humanized anti-human C5a antibody (antibody, V domains shown)
VH: QVQLVQSGAEVKKPGASVKVSCKASGYTFTDYSMDWVRQAPGQGLEWMGAINPNSGGTNYNQKFKDRVTMTRDTSTSTVYMELSSLRSEDTAVYYCARSGSYDGYYAMDYWGQGTTVTVSS
VL: DIQMTQSPSSLSASVGDRVTITCRASESVDSYGNSFMHWYQQKPGKAPKLLIYRASNLESGVPSRFSGSGSGTDFTLTISSLQPEDFATYYCQQSNEDPYTFGGGTKVEIK
notes: also called humanized anti-C5a antibody; the humanized antibody
For the molecule B2, in the experiment with human C5a [2], the Kd was ~298 pM, the koff is ~0.000576 s⁻¹ and the kon is ~1.93e+06 M⁻¹ s⁻¹.

Usually Kd stands for a measure of binding affinity in units of concentration. Low values mean higher affinity, high ones lower affinity. The koff is the first-order rate constant of dissociation. What is called kon is the second-order rate constant of association. A lower kon goes with slow association.
